Results on 14 molecules are retold here after patent publication US9957297B2, “Template-fixed peptidomimetics as inhibitors of FPR1” (POLYPHOR AG, priority 2011, dated 2018).

Bridges are numbered along the chain shown (N, C = ends). [ ]: non-standard residue; d: D form.

This experiment addresses T1, Formyl-Peptide Receptor 1 (UniProt P21462 1-350, limits assumed).
T1 sequence (looked up): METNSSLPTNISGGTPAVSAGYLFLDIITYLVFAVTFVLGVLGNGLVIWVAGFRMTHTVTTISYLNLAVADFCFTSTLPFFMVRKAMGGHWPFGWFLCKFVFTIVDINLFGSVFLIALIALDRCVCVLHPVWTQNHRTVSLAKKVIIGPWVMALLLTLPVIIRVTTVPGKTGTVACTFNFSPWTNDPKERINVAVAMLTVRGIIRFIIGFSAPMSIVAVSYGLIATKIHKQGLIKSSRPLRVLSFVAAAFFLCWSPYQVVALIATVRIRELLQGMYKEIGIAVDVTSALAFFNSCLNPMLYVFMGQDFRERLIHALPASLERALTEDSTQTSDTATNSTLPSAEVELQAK
The experiment can be described thus: cell-based or functional assay.

B1: cyclo(-His-His-Ala-Cys-Trp-Gly-^DPro-Trp-Thr-Ile-Cys-Tyr-Gln-Lys-^DPro-Pro-) (peptide)
peptide: cyclo(HHACWG[dP]WTICYQK[dP]P)
modifications: disulfide 4-11
SMILES: CC[C@H](C)[C@@H]1NC(=O)[C@H]([C@@H](C)O)NC(=O)[C@H](Cc2c[nH]c3ccccc23)NC(=O)[C@H]2CCCN2C(=O)CNC(=O)[C@H](Cc2c[nH]c3ccccc23)NC(=O)[C@@H]2CSSC[C@H](NC1=O)C(=O)N[C@@H](Cc1ccc(O)cc1)C(=O)N[C@@H](CCC(N)=O)C(=O)N[C@@H](CCCCN)C(=O)N1CCC[C@@H]1C(=O)N1CCC[C@H]1C(=O)N[C@@H](Cc1c[nH]cn1)C(=O)N[C@@H](Cc1c[nH]cn1)C(=O)N[C@@H](C)C(=O)N2
On to B1, for which the “β-Arrestin IC50” value was found to be 342 nM.

B2: cyclo(-His-Tyr-Ala-Cys-Trp-Gly-^DPro-Trp-Thr-Ile-Cys-Tyr-Gln-Lys-^DPro-Pro-) (peptide)
peptide: cyclo(HYACWG[dP]WTICYQK[dP]P)
modifications: disulfide 4-11
SMILES: CC[C@H](C)[C@@H]1NC(=O)[C@H]([C@@H](C)O)NC(=O)[C@H](Cc2c[nH]c3ccccc23)NC(=O)[C@H]2CCCN2C(=O)CNC(=O)[C@H](Cc2c[nH]c3ccccc23)NC(=O)[C@@H]2CSSC[C@H](NC1=O)C(=O)N[C@@H](Cc1ccc(O)cc1)C(=O)N[C@@H](CCC(N)=O)C(=O)N[C@@H](CCCCN)C(=O)N1CCC[C@@H]1C(=O)N1CCC[C@H]1C(=O)N[C@@H](Cc1c[nH]cn1)C(=O)N[C@@H](Cc1ccc(O)cc1)C(=O)N[C@@H](C)C(=O)N2
As for B2, the “β-Arrestin IC50” value came out at 735 nM.

B3: cyclo(-Ala-His-Ala-Cys-Trp-Gly-^DPro-Trp-Thr-Ile-Cys-Tyr-Gln-Lys-^DPro-Pro-) (peptide)
peptide: cyclo(AHACWG[dP]WTICYQK[dP]P)
modifications: disulfide 4-11
SMILES: CC[C@H](C)[C@@H]1NC(=O)[C@H]([C@@H](C)O)NC(=O)[C@H](Cc2c[nH]c3ccccc23)NC(=O)[C@H]2CCCN2C(=O)CNC(=O)[C@H](Cc2c[nH]c3ccccc23)NC(=O)[C@@H]2CSSC[C@H](NC1=O)C(=O)N[C@@H](Cc1ccc(O)cc1)C(=O)N[C@@H](CCC(N)=O)C(=O)N[C@@H](CCCCN)C(=O)N1CCC[C@@H]1C(=O)N1CCC[C@H]1C(=O)N[C@@H](C)C(=O)N[C@@H](Cc1c[nH]cn1)C(=O)N[C@@H](C)C(=O)N2
With B3, the “β-Arrestin IC50” value stood at 404 nM.

B4: cyclo(-Tyr-His-Ala-Cys-Trp-Gly-^DPro-Trp-Thr-Ile-Cys-Tyr-Ala-Lys-^DPro-Pro-) (peptide)
peptide: cyclo(YHACWG[dP]WTICYAK[dP]P)
modifications: disulfide 4-11
SMILES: CC[C@H](C)[C@@H]1NC(=O)[C@H]([C@@H](C)O)NC(=O)[C@H](Cc2c[nH]c3ccccc23)NC(=O)[C@H]2CCCN2C(=O)CNC(=O)[C@H](Cc2c[nH]c3ccccc23)NC(=O)[C@@H]2CSSC[C@H](NC1=O)C(=O)N[C@@H](Cc1ccc(O)cc1)C(=O)N[C@@H](C)C(=O)N[C@@H](CCCCN)C(=O)N1CCC[C@@H]1C(=O)N1CCC[C@H]1C(=O)N[C@@H](Cc1ccc(O)cc1)C(=O)N[C@@H](Cc1c[nH]cn1)C(=O)N[C@@H](C)C(=O)N2
Regarding B4, the “β-Arrestin IC50” value is 278 nM.

B5: cyclo(-Thr-His-Ala-Cys-Trp-Gly-^DPro-Trp-Thr-Ile-Cys-Tyr-Gln-Lys-^DPro-Pro-) (peptide)
peptide: cyclo(THACWG[dP]WTICYQK[dP]P)
modifications: disulfide 4-11
SMILES: CC[C@H](C)[C@@H]1NC(=O)[C@H]([C@@H](C)O)NC(=O)[C@H](Cc2c[nH]c3ccccc23)NC(=O)[C@H]2CCCN2C(=O)CNC(=O)[C@H](Cc2c[nH]c3ccccc23)NC(=O)[C@@H]2CSSC[C@H](NC1=O)C(=O)N[C@@H](Cc1ccc(O)cc1)C(=O)N[C@@H](CCC(N)=O)C(=O)N[C@@H](CCCCN)C(=O)N1CCC[C@@H]1C(=O)N1CCC[C@H]1C(=O)N[C@@H]([C@@H](C)O)C(=O)N[C@@H](Cc1c[nH]cn1)C(=O)N[C@@H](C)C(=O)N2
Regarding B5, the “β-Arrestin IC50” value is 294 nM.

B6: cyclo(-Tyr-His-Ala-Cys-Trp-Gly-^DPro-Trp-Thr-Ile-Cys-Tyr-Thr-Lys-^DPro-Pro-) (peptide)
peptide: cyclo(YHACWG[dP]WTICYTK[dP]P)
modifications: disulfide 4-11
SMILES: CC[C@H](C)[C@@H]1NC(=O)[C@H]([C@@H](C)O)NC(=O)[C@H](Cc2c[nH]c3ccccc23)NC(=O)[C@H]2CCCN2C(=O)CNC(=O)[C@H](Cc2c[nH]c3ccccc23)NC(=O)[C@@H]2CSSC[C@H](NC1=O)C(=O)N[C@@H](Cc1ccc(O)cc1)C(=O)N[C@@H]([C@@H](C)O)C(=O)N[C@@H](CCCCN)C(=O)N1CCC[C@@H]1C(=O)N1CCC[C@H]1C(=O)N[C@@H](Cc1ccc(O)cc1)C(=O)N[C@@H](Cc1c[nH]cn1)C(=O)N[C@@H](C)C(=O)N2
For the molecule B6, the “β-Arrestin IC50” value was determined as 202 nM.

B7: cyclo(-Tyr-His-Ala-Cys-Tyr-Gly-^DPro-Trp-Thr-Ile-Cys-Tyr-Gln-Lys-^DPro-Pro-) (peptide)
peptide: cyclo(YHACYG[dP]WTICYQK[dP]P)
modifications: disulfide 4-11
SMILES: CC[C@H](C)[C@@H]1NC(=O)[C@H]([C@@H](C)O)NC(=O)[C@H](Cc2c[nH]c3ccccc23)NC(=O)[C@H]2CCCN2C(=O)CNC(=O)[C@H](Cc2ccc(O)cc2)NC(=O)[C@@H]2CSSC[C@H](NC1=O)C(=O)N[C@@H](Cc1ccc(O)cc1)C(=O)N[C@@H](CCC(N)=O)C(=O)N[C@@H](CCCCN)C(=O)N1CCC[C@@H]1C(=O)N1CCC[C@H]1C(=O)N[C@@H](Cc1ccc(O)cc1)C(=O)N[C@@H](Cc1c[nH]cn1)C(=O)N[C@@H](C)C(=O)N2
With B7, the “β-Arrestin IC50” value came to 184 nM.

B8: cyclo(-Tyr-His-Ala-Cys-His-Gly-^DPro-Trp-Thr-Ile-Cys-Tyr-Thr-Lys-^DPro-Pro-) (peptide)
peptide: cyclo(YHACHG[dP]WTICYTK[dP]P)
modifications: disulfide 4-11
SMILES: CC[C@H](C)[C@@H]1NC(=O)[C@H]([C@@H](C)O)NC(=O)[C@H](Cc2c[nH]c3ccccc23)NC(=O)[C@H]2CCCN2C(=O)CNC(=O)[C@H](Cc2c[nH]cn2)NC(=O)[C@@H]2CSSC[C@H](NC1=O)C(=O)N[C@@H](Cc1ccc(O)cc1)C(=O)N[C@@H]([C@@H](C)O)C(=O)N[C@@H](CCCCN)C(=O)N1CCC[C@@H]1C(=O)N1CCC[C@H]1C(=O)N[C@@H](Cc1ccc(O)cc1)C(=O)N[C@@H](Cc1c[nH]cn1)C(=O)N[C@@H](C)C(=O)N2
Take B8: the “β-Arrestin IC50” value came out at 598 nM.

B9: cyclo(-Tyr-His-Ala-Cys-His-Gly-^DPro-Trp-Thr-Ile-Cys-Tyr-Glu-Lys-^DPro-Pro-) (peptide)
peptide: cyclo(YHACHG[dP]WTICYEK[dP]P)
modifications: disulfide 4-11
SMILES: CC[C@H](C)[C@@H]1NC(=O)[C@H]([C@@H](C)O)NC(=O)[C@H](Cc2c[nH]c3ccccc23)NC(=O)[C@H]2CCCN2C(=O)CNC(=O)[C@H](Cc2c[nH]cn2)NC(=O)[C@@H]2CSSC[C@H](NC1=O)C(=O)N[C@@H](Cc1ccc(O)cc1)C(=O)N[C@@H](CCC(=O)O)C(=O)N[C@@H](CCCCN)C(=O)N1CCC[C@@H]1C(=O)N1CCC[C@H]1C(=O)N[C@@H](Cc1ccc(O)cc1)C(=O)N[C@@H](Cc1c[nH]cn1)C(=O)N[C@@H](C)C(=O)N2
B9: the “β-Arrestin IC50” value stood at 189 nM.

B10: cyclo(-Tyr-His-Lys-Cys-His-Gly-^DPro-Trp-Thr-Ile-Cys-Tyr-Glu-Lys-^DPro-Glu-) (peptide)
peptide: cyclo(YHKCHG[dP]WTICYEK[dP]E)
modifications: disulfide 4-11
SMILES: CC[C@H](C)[C@@H]1NC(=O)[C@H]([C@@H](C)O)NC(=O)[C@H](Cc2c[nH]c3ccccc23)NC(=O)[C@H]2CCCN2C(=O)CNC(=O)[C@H](Cc2c[nH]cn2)NC(=O)[C@@H]2CSSC[C@H](NC1=O)C(=O)N[C@@H](Cc1ccc(O)cc1)C(=O)N[C@@H](CCC(=O)O)C(=O)N[C@@H](CCCCN)C(=O)N1CCC[C@@H]1C(=O)N[C@@H](CCC(=O)O)C(=O)N[C@@H](Cc1ccc(O)cc1)C(=O)N[C@@H](Cc1c[nH]cn1)C(=O)N[C@@H](CCCCN)C(=O)N2
Take B10: the “β-Arrestin IC50” value was found to be 169 nM.

B11: cyclo(-Tyr-His-Ala-Cys-Phe-Gly-^DPro-Trp-Thr-Ile-Cys-Tyr-Gln-Lys-^DPro-Pro-) (peptide)
peptide: cyclo(YHACFG[dP]WTICYQK[dP]P)
modifications: disulfide 4-11
SMILES: CC[C@H](C)[C@@H]1NC(=O)[C@H]([C@@H](C)O)NC(=O)[C@H](Cc2c[nH]c3ccccc23)NC(=O)[C@H]2CCCN2C(=O)CNC(=O)[C@H](Cc2ccccc2)NC(=O)[C@@H]2CSSC[C@H](NC1=O)C(=O)N[C@@H](Cc1ccc(O)cc1)C(=O)N[C@@H](CCC(N)=O)C(=O)N[C@@H](CCCCN)C(=O)N1CCC[C@@H]1C(=O)N1CCC[C@H]1C(=O)N[C@@H](Cc1ccc(O)cc1)C(=O)N[C@@H](Cc1c[nH]cn1)C(=O)N[C@@H](C)C(=O)N2
For B11, the “β-Arrestin IC50” value stood at 166 nM.

B12: cyclo(-Glu-His-Ala-Cys-Trp-Gly-^DPro-Trp-Thr-Ile-Cys-Tyr-Gln-Lys-^DPro-Pro-) (peptide)
peptide: cyclo(EHACWG[dP]WTICYQK[dP]P)
modifications: disulfide 4-11
SMILES: CC[C@H](C)[C@@H]1NC(=O)[C@H]([C@@H](C)O)NC(=O)[C@H](Cc2c[nH]c3ccccc23)NC(=O)[C@H]2CCCN2C(=O)CNC(=O)[C@H](Cc2c[nH]c3ccccc23)NC(=O)[C@@H]2CSSC[C@H](NC1=O)C(=O)N[C@@H](Cc1ccc(O)cc1)C(=O)N[C@@H](CCC(N)=O)C(=O)N[C@@H](CCCCN)C(=O)N1CCC[C@@H]1C(=O)N1CCC[C@H]1C(=O)N[C@@H](CCC(=O)O)C(=O)N[C@@H](Cc1c[nH]cn1)C(=O)N[C@@H](C)C(=O)N2
In the case of B12, the “β-Arrestin IC50” value is 131 nM.

B13: cyclo(-Tyr-His-Ala-Cys-His-Gly-^DPro-Trp-Thr-Ile-Cys-Tyr-Gln-Glu-^DPro-Pro-) (peptide)
peptide: cyclo(YHACHG[dP]WTICYQE[dP]P)
modifications: disulfide 4-11
SMILES: CC[C@H](C)[C@@H]1NC(=O)[C@H]([C@@H](C)O)NC(=O)[C@H](Cc2c[nH]c3ccccc23)NC(=O)[C@H]2CCCN2C(=O)CNC(=O)[C@H](Cc2c[nH]cn2)NC(=O)[C@@H]2CSSC[C@H](NC1=O)C(=O)N[C@@H](Cc1ccc(O)cc1)C(=O)N[C@@H](CCC(N)=O)C(=O)N[C@@H](CCC(=O)O)C(=O)N1CCC[C@@H]1C(=O)N1CCC[C@H]1C(=O)N[C@@H](Cc1ccc(O)cc1)C(=O)N[C@@H](Cc1c[nH]cn1)C(=O)N[C@@H](C)C(=O)N2
On to B13, for which the “β-Arrestin IC50” value was 132 nM.

B14: cyclo(-Lys-His-Ala-Cys-His-Gly-^DPro-Trp-Thr-Ile-Cys-Tyr-Gln-Lys-^DPro-Pro-) (peptide)
peptide: cyclo(KHACHG[dP]WTICYQK[dP]P)
modifications: disulfide 4-11
SMILES: CC[C@H](C)[C@@H]1NC(=O)[C@H]([C@@H](C)O)NC(=O)[C@H](Cc2c[nH]c3ccccc23)NC(=O)[C@H]2CCCN2C(=O)CNC(=O)[C@H](Cc2c[nH]cn2)NC(=O)[C@@H]2CSSC[C@H](NC1=O)C(=O)N[C@@H](Cc1ccc(O)cc1)C(=O)N[C@@H](CCC(N)=O)C(=O)N[C@@H](CCCCN)C(=O)N1CCC[C@@H]1C(=O)N1CCC[C@H]1C(=O)N[C@@H](CCCCN)C(=O)N[C@@H](Cc1c[nH]cn1)C(=O)N[C@@H](C)C(=O)N2
Turning to B14, the “β-Arrestin IC50” value stood at 590 nM.
